Measurements taken from paper PMC3763369 (Structure(London, England:1993), 2013).

Key:
[1] = molecular target: T1, FANCM C-terminal fragment (FANCMCTD), residues 1,799-2,048 (human, UniProt Q8IYD8 1799-2048); assay: crystal structure
T1 sequence (looked up): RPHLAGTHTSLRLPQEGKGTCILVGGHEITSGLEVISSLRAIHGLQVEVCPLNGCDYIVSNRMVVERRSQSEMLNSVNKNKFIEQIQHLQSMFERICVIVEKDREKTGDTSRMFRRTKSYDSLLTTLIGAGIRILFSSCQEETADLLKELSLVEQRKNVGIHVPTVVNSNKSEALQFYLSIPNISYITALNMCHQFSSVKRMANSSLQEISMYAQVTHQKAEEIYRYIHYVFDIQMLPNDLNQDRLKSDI

[2] = molecular target: full-length FANCM (N-terminal Flag-tag, C-terminal 8His-tag) (human, UniProt Q8IYD8 1-2048); assay: negative-stain single particle electron microscopy
FANCM CTD;FAAP24 = molecular target: T2, FANCM CTD;FAAP24 (human?;human?, UniProt Q8IYD8;Q9BTP7 1799-2048;1-215, |); assay: X-ray crystallography
T2 sequence 1: T1 sequence (looked up)
T2 sequence 2: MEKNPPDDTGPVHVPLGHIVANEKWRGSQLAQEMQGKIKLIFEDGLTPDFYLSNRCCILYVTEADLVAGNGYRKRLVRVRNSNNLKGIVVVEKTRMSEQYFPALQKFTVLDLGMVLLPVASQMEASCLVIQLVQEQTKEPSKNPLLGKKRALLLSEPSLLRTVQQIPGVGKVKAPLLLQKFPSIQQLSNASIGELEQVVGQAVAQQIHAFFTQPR

B1: FAAP24 (full length), partner in the FANCMCTD-FAAP24 complex (natural protein, human, UniProt Q9BTP7 1-215, looked up)
chain: T2 sequence 2
[1]
  binding result: binds

B2: FAAP24, untagged, co-expressed with full-length FANCM (natural protein, human, UniProt Q9BTP7 1-215, looked up)
chain: T2 sequence 2
[2]
  binding result: binds

B3: 11 bp crystallization duplex (dsDNA)
DNA 1: GATGATGCTGA
DNA 2: TCAGCATCATC
FANCM CTD;FAAP24
  binding result: binds
